{"source": "paper PMC8534903", "test_system": "His-Mwt (matrix protein M) (Human respiratory syncytial virus (A2?))", "assay": "EMSA", "conditions": "10 mM HEPES (pH not stated), 0.25 mM DTT, 50 mM KCl, 10 uL, 15 min at room temperature; 0.8% agarose gel, 40 V, 8 h, 4 C", "data": [{"substance": "control luciferase RNA (T7 transcript)", "values": [{"measurement": "K half", "result": 2100, "unit": "nM"}]}]}
